Source: PMC8639797 (Nature, 2021)
Residue numbers refer to the chain shown, from its start. Names may count otherwise.

What was measured:
AUC = target: the molecule itself; experiment: AUC
SEC-MALS + AUC = target: the molecule itself; experiment: SEC-MALS + AUC
[1] = target: ALK-ECR^ABR (residues 673–1025) (human); experiment: SEC-MALS
[2] = target: ALK-ECR^ABR−4M (T686A/N787A/Q788A/I795A) (human, UniProt Q9UM73 673-1025, T686A | N787A | Q788A | I795A); experiment: SEC-MALS + AUC

B1: MBP-ALKAL2^C66Y (ligand, human)
chain: AEPREPADGQALLRLVVELVQELRKHHSAEHKGLQLLGRDYALGRAEAAGLGPSPEQRVEIVPRDLRMKDKFLKHLTGPLYFSPKCSKHFHRLYHNTRDCTIPAYYKRCARLLTRLAVSPVCMEDKQ
AUC
  Kd: 38 ± 6 µM

B2: ALK-ECR^ABR–ALKAL2^C66Y 1:1 heterodimeric complex (complex, human)
chain 1: QTPIFDPTVHWLFTTCGASGPHGPTQAQCNNAYQNSNLSVEVGSEGPLKGIQIWKVPATDTYSISGYGAAGGKGGKNTMMRSHGVSVLGIFNLEKDDMLYILVGQQGEDACPSTNQLIQKVCIGENNVIEEEIRVNRSVHEWAGGGGGGGGATYVFKMKDGVPVPLIIAAGGGGRAYGAKTDTFHPERLENNSSVLGLNGNSGAAGGGGGWNDNTSLLWAGKSLQEGATGGHSCPQAMKKWGWETRGGFGGGGGGCSSGGGGGGYIGGNAASNNDPEMDGEDGVSFISPLGILYTPALKVMEGHGEVNIKHYLNCSHCEVDECHMDPESHKVICFCDHGTVLAEDGVSCIVSP
chain 2: B1 chain
SEC-MALS + AUC
  Kd: ~3.2 µM

B3: ALKAL2^C66Y (full-size, MBP removed) (ligand, human)
chain: B1 chain
[1]
  stoichiometry N: 1

B4: ALKAL2^2M (full-size ALKAL2^C66Y with I127A/Y130A) (ligand, human, UniProt Q6UX46 26-152, looked up)
chain: B1 chain with I102A, Y105A
[2]
  stoichiometry N: 1

B5: ALK ECR^ABR−4M:ALKAL2^2M 1:1 complex (complex, human)
chain 1: B2 chain 1 with T14A, N115A, Q116A, I123A
chain 2: B1 chain with I102A, Y105A
SEC-MALS + AUC
  fold reduction of dimerization to the 2:2 complex against the wild-type complex: 5 fold
